Where “and” joins values, the source holds several entries; their conditions need not be identical. Equal values may be shown once.
Experiments:
[1] = target: C-terminally truncated HRSV nucleoprotein N1-370 (strain Long), as N-RNA assemblies (Human respiratory syncytial virus (strain Long)) (UniProt P03418); experiment: cryo-EM structure; purified N-RNA assemblies in TEN buffer (50 mM Tris-HCl, 10 mM EDTA, 150 mM NaCl, pH 7.4), plunge-frozen on holey carbon grids; Glacios microscope, K2 detector; assemblies classified and reconstructed separately
[2] = target: Human respiratory syncytial virus nucleoprotein N, full-length wild type (strain Long), as N-RNA assemblies (Human respiratory syncytial virus (strain Long)) (UniProt P03418); experiment: as above

Substance | stoichiometry N [1] | stoichiometry N [2]
C-terminally truncated HRSV nucleoprotein N1-370 (strain Long), as N-RNA assemblies (from UniProt P03418 1-370) (domain or fragment) | 10 | –
Human respiratory syncytial virus nucleoprotein N, full-length wild type (strain Long), as N-RNA assemblies (from UniProt P03418 1-391) (natural protein) | – | 10 and 11
